This is an account of results in PMC12311003, “Biochemical characterization of a novel purified lectin extracted from Pleurotus ostreatus mushroom for its antiviral activity” (Scientific Reports, 2025).

pIC50, pKd, pKi: −log10 of the molar value.

The target of one assay is T1, HBV polymerase (Hepatitis B virus ayw/Japan/JYW796/1988, UniProt Q9QMI1).
T1 construct: gene P
The assay is described as follows: [3H]TTP incorporation, scintillation counting. It counts as biochemical.

In a further assay the target is HCV NS3/NS4A protease (Hepatitis C virus (isolate BK), UniProt P26663). The following applies: NS4A/NS4B-derived fluorogenic peptide substrate, 30 min, 37 °C; used as comparator drug.
Sequence of HCV NS3/NS4A protease (P26663 1027-1657): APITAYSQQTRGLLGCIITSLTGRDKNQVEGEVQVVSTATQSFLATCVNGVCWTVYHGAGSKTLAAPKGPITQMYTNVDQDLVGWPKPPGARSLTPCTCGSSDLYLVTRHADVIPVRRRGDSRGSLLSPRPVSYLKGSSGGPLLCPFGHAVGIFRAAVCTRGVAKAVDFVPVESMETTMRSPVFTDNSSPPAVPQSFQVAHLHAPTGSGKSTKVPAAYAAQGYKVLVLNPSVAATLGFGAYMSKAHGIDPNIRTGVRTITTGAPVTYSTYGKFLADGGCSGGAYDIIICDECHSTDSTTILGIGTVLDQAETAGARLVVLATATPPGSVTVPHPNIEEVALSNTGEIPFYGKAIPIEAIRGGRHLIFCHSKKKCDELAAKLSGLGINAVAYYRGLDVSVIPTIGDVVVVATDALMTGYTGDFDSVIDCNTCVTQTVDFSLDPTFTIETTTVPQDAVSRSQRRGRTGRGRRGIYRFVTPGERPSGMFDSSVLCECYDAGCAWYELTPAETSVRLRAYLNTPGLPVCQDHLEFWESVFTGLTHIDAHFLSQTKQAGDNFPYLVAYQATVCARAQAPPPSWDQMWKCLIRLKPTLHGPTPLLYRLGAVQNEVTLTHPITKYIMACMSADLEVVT
Sequence of HCV NS3/NS4A protease (P26663 1658-1711): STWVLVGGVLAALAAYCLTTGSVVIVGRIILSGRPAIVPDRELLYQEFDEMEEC
Assay [1] concerns the target scavenger receptor class B-type I (SR-B1) (UniProt Q8WTV0). The assay is described as follows: AlphaScreen or HTRF.
Assay [2] addresses CD81 (human (endogenous in PBMCs)) (UniProt P60033). Kind of assay: flow cytometry on cells; 1 x 10^6 PBMCs incubated 2 h with 12.5 µM POL, then anti-CD81-FITC antibody at 4 °C for 30 min; binding taken from the fall in unbound CD81. (In general: A flow cytometer gives signals particle by particle.)

Sequence of scavenger receptor class B-type I (SR-B1) (Q8WTV0 whole entry): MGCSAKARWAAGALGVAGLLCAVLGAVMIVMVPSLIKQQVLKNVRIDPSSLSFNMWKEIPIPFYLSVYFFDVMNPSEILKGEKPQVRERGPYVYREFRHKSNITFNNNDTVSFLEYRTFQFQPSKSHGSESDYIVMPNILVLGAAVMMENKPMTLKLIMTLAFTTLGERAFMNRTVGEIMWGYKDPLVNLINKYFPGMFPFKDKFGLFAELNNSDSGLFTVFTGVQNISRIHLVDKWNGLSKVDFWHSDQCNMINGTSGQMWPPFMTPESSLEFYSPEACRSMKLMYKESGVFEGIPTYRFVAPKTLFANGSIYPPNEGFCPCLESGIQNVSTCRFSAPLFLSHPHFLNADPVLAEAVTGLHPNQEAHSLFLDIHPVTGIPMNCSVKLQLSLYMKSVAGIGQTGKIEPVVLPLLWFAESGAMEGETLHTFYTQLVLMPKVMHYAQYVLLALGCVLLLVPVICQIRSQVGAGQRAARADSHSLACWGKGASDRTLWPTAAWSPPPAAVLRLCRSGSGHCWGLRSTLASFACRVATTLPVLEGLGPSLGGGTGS
T1 sequence (Q9QMI1 whole entry): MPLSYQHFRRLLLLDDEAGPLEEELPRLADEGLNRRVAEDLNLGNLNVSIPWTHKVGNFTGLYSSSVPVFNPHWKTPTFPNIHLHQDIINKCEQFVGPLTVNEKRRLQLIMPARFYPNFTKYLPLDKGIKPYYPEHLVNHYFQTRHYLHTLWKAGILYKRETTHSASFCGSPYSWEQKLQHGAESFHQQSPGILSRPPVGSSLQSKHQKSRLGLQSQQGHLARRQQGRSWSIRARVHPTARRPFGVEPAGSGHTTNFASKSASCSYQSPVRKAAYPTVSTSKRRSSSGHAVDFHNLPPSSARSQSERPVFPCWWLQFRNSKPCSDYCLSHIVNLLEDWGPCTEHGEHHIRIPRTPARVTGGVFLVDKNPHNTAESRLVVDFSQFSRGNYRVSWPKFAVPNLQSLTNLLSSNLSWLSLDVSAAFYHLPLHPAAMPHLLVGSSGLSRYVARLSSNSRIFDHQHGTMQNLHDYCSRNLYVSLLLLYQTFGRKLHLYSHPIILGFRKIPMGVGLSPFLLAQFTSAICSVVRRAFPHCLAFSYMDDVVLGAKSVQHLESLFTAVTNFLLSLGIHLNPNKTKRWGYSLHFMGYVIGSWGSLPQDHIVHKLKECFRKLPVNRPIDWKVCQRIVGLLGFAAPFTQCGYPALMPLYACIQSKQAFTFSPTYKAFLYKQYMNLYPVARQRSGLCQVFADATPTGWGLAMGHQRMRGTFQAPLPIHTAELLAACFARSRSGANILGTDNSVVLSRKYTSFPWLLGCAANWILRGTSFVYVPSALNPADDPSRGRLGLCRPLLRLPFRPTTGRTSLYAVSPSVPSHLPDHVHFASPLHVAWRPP
Sequence of CD81 (human (endogenous in PBMCs)) (P60033 whole entry): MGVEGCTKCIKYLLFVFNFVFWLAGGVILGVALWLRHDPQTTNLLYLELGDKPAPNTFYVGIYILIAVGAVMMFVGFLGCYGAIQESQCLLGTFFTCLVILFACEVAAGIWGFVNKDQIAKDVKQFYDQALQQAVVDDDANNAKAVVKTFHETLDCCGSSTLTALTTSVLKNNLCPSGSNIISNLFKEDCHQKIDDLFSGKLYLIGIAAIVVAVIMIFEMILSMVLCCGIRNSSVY

One may read the pIC50 as −log10 of the IC50, conventionally taken in molar units. Higher therefore signals a small IC50. On HBV polymerase, `Nc1ccn([C@@H]2CS[C@H](CO)O2)c(=O)n1` [LAM, lamivudine] showed a negative logarithm of the IC50 (pIC50) of 8.19.

Compound `CC(C)OC(=O)[C@H](C)N[P@](=O)(OC[C@H]1O[C@@H](n2ccc(=O)[nH]c2=O)[C@](C)(F)[C@@H]1O)Oc1ccccc1` [SOF, sofosbuvir] gave a pIC50 against HCV NS3/NS4A protease of 7.81.

Usually pKd stands for −log10 of the Kd, conventionally taken in molar units. Broadly, the pKi is the Ki on a negative log10 scale, so that one unit is a factor of ten. A lower pKi goes with a high Ki. In assay [1], “Pleurotus ostreatus lectin (POL) (natural protein)” showed a pIC50 of 8.00, a pKd of 8.44 and a negative logarithm of the Ki (pKi) of 8.52. Also, the percentage of binding to CD81 at 12.5 µM in assay [2] stood at 58.8%.
